Source: publication PMC3905668

Columns and labels:
[1] = molecular target: C-terminally KGC-tagged Gag (Gag-KGC); test: bimolecular fluorescence complementation (BiFC), flow cytometry on cells; details: 293T cells, 48 hours post-transfection; parent: est. 100; read off a plot
[2] = molecular target: N-terminally KGN-tagged Vpr (KGN-Vpr) (UniProt P12520); test: as above; details: 293T cells, 48 hours post-transfection; parent: est. 100; read off a plot

N-terminally KGN-tagged Vpr (KGN-Vpr) (from UniProt P12520) Q44E
percent of parent [1]: 30%

C-terminally KGC-tagged Gag (Gag-KGC) S487A
percent of parent [2]: 35%
